The values below come from US10407511B2, “Covalently linked helicar-anti-helicar antibody conjugates and uses thereof” (Hoffmann-La Roche Inc., priority 2014, dated 2019).

Series [1] can be described thus: Dig-peptide serum kinetic (Western blot of digoxigenylated PYY in serum). The series is classed as in vivo, mice (strain NRMI). The procedure: Serum samples were stored at −80° C.
The determination of the amount of digoxigenylated peptide in the serum at the given time points was difficult compared to the detection of Dig-Cy5 as no direct means to detect the polypeptide in serum samples was available. Therefore, a Western-Blot related assay to detect digoxigenylated peptide in serum was established. In a first step, the serum samples were separated on reducing SDS-PAGE. Because sample preparation included exposure of the serum to high concentrations of SDS and reducing agents, complexed Dig-polypeptide conjugates can become released from the (completely denatured/unfolded) anti-digoxigenin antibody, whereas covalently conjugates remained bound. To mediate the release of the polypeptide from the non-covalent antibody complex and separate the individual components by SDS-PAGE, 2 μl of each serum sample was diluted in 18 μl 20 mM histidine/140 mM NaCl pH 6.0, mixed with 6.7 μl of 4×LDS sample buffer and 3 μl of 10× sample reducing agent (NuPAGE, Invitrogen) for 5 min at 95° C. As a control, 2 μl of serum of an untreated mouse of the same strain was used. Samples were applied to a 4-12% Bis-Tris Gel (NuPAGE, Invitrogen) which was run at 200 V/120 mA for 20 minutes using 1×MES (Invitrogen) as a running buffer. Subsequently, separated polypeptides were blotted onto a PVDF membrane (0.22 μm pore size, Invitrogen) using the XCell Sure Lock® Mini-Cell system (Invitrogen) for 40 min at 25 V/130 mA. Membranes were blocked in 1% skim milk in 1×PBS+1% Tween20 (PBST) for 1 h at RT. Digoxigenylated polypeptides were subsequently detected on the membrane with an anti-digoxigenin antibody. For that, anti-digoxigenin antibody was applied to the membranes in a concentration of 13 μg/ml in 10 ml of 1% skim milk/PBST for 2 h at RT. Membranes were washed for 3×5 min in 1×PBST. Anti-mouse IgG Fab-fragments coupled to POD from the LumiLight^PLUS Western Blotting Kit (Roche) was applied in a 1:25 dilution in 10 ml of 1% skim milk/PBST for 1 h at RT. […] Chemiluminescence was detected with the LumiImager F1 (Roche) with an exposure time of 20 min.

In another series the target is T1, NPY2R (Homo sapiens, UniProt P49146).
T1 sequence (P49146 1-381): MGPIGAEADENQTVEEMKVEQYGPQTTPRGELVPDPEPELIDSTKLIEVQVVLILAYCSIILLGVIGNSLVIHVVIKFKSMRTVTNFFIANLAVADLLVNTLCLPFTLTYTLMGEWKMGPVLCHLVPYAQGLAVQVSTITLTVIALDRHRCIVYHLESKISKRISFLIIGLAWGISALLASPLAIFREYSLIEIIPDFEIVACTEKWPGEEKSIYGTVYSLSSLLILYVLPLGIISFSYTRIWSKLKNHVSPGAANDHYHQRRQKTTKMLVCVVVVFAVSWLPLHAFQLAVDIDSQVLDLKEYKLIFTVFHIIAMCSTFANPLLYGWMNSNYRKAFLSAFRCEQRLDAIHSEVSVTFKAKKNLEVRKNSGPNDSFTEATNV
Kind of series: effect on Y2Receptor family: NPY2R. The series is classed as cell-based.

Another series addresses T2, NPY1R (Homo sapiens, UniProt P25929).
T2 sequence (P25929 1-384): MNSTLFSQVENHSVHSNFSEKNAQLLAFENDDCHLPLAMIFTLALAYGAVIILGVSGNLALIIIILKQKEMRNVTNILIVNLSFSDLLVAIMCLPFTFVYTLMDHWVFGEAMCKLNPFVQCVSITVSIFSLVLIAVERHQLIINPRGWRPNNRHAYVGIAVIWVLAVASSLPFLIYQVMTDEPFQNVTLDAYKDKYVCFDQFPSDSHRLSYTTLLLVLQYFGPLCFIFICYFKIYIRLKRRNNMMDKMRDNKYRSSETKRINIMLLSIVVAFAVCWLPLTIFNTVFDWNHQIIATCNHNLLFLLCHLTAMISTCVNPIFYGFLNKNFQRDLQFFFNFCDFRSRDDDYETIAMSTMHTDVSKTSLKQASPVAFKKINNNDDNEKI
Kind of series: effect on Y2Receptor family: NPY1R. The series is classed as cell-based.

In a further series the target is NPY4R (Homo sapiens, UniProt P50391). Nature of the series: effect on Y2Receptor family: NPY4R. The series is classed as cell-based.
For another series, the target named is T3, NPY5R (Homo sapiens, UniProt Q15761).
T3 sequence (Q15761 1-445): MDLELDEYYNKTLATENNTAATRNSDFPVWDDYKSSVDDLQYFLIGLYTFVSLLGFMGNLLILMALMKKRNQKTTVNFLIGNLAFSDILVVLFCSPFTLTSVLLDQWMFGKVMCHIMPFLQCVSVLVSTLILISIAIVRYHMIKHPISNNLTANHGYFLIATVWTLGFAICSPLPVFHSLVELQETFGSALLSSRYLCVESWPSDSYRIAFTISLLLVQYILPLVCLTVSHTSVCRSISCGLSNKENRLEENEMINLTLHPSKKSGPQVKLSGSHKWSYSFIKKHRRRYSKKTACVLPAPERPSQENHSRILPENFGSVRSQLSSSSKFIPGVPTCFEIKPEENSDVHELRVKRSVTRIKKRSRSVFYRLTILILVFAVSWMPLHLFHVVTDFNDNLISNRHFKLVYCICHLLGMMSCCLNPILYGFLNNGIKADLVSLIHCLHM
Kind of series: effect on Y2Receptor family: NPY5R. The format is cell-based.

For series [2], the target named is anti-helicar motif amino acid sequence antibody. Kind of series: binding [Kd] of PYY peptides by anti-helicar antibody. The settings on record: PYY peptide bound by anti-helicar antibody.

Numbered stars: 1 amine (or outer) side, 2 acyl side, 3 side chain; on linkers, the order of the positions; unused ones are H or OH. Square brackets hold non-standard residues; d marks the D form. Ends that are not written are not given here. Pqa = 4-oxo-6-(1-piperazinyl)-3(4H)-quinazoline-acetic acid, O=C(Cn1cnc2ccc(N3CCN([*:1])CC3)cc2c1=O)[*:2]; NMeR = CN[C@@H](CCCNC(=N)N)C(=O)O

Sequence of NPY4R (P50391 whole entry, species assumed): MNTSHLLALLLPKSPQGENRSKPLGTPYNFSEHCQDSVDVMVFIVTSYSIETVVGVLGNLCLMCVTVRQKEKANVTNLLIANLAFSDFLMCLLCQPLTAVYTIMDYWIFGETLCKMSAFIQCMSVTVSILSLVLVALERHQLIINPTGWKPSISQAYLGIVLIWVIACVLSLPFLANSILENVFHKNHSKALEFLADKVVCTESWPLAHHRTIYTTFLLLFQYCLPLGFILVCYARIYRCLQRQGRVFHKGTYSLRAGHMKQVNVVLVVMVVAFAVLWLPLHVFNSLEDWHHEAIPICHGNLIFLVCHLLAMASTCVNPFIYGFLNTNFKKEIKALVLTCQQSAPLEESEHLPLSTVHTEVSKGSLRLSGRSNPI

“DIG-PYY: digoxigenylated PYY polypeptide”: the figures for the “digoxigenylated polypeptide signal in serum” value in series [1] (5 min after administration) and in series [1] (later time points up to 24 hrs.) were “only in trace amounts” and “no defined polypeptide band was detectable”, respectively. In addition, in series [1] (mouse, in vivo), the “half-life in the serum” value is “very short half-life”.
“Ac-Ile-Lys-Pqa-Arg-His-Tyr-Leu-Asn-Trp-Val-Thr-Arg-Gln-(NMe)-Arg-Try-NH2 * 4 HOAc (Ac-IK[Pqa]RHYLNWVTRQ[NMeR]Y-NH2; also: 4 HOAc salt) [reference compound]” yielded an NPY2R in the series with NPY2R of 1.0 nM. Further, in the series with NPY1R, the NPY1R entry was “inactive”. Moreover, the NPY4R entry with NPY4R is “inactive”. Besides, in the series with NPY5R, the NPY5R result is “inactive”.
For orientation: Kd means the constant that tells how readily two partners part at equilibrium. The substance “IKPEAPGEDASPEAHLANEVARLHYLNLVTRQRY-NH2 [PYY_helicar]” returned a Kd in series [2] of 12 nM. Moreover, on NPY2R, the NPY2R is given as 6.38 nM. At NPY4R, the NPY4R entry was “inactive”. Moreover, at NPY5R, the NPY5R result was “inactive”.
